Results from article PMC2827695 (Journal of the American Society for Mass Spectrometry, 2009).

Molecular target: T1, IFNAR1 (UniProt P17181 28-436)
T1 sequence (looked up): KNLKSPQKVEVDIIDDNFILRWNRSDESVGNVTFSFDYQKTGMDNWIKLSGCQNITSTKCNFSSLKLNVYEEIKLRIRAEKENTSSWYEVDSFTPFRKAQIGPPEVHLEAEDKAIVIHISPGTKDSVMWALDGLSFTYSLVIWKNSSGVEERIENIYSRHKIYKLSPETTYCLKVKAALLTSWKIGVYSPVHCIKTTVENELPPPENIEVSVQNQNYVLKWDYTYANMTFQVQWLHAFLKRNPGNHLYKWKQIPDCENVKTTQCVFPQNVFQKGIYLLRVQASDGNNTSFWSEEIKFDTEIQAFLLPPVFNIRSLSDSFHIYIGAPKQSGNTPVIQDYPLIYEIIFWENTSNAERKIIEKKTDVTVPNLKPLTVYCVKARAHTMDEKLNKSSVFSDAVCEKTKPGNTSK
Assay: native MS

- stoichiometry N: 1
B1: Interferon-β1a (ligand, UniProt P01574 22-187, looked up)
chain: MSYNLLGFLQRSSNFQCQKLLWQLNGRLEYCLKDRMNFDIPEEIKQLQQFQKEDAALTIYEMLQNIFAIFRQDSSSTGWNETIVENLLANVYHQINHLKTVLEEKLEKEDFTRGKLMSSLHLKRYYGRILHYLKAKEYSHCAWTIVRVEILRNFYFINRLTGYLRN
modifications: glycoprotein with a carbohydrate chain, several glycoforms (glycosylation site printed as Asn-90)
